For one substance, Km results are on record in US11925667B2, “Engineered therapeutic probiotic system and method” (priority 2018, dated 2024).

The test system of this data set is C=CC/C(=N/OS(=O)(=O)O)S[C@@H]1O[C@H](CO)[C@@H](O)[C@H](O)[C@H]1O. Put plainly: Myrosinase activity assay (glucose release from sinigrin hydrolysis), TGG1. Format: biochemical, Arabidopsis thaliana. As to the method:
Screening for improved β-thioglucosidase. The activity and stability of myrosinase, a β-thioglucosidase that hydrolyzes glucosinolate to sulforaphane, varies at differing pH and temperature; in a preferred embodiment the selected enzyme needs to function under physiological colorectal conditions. The healthy colon pH averages 6.6, while it is 7.0 and 6.7 in patients with adenoma and carcinoma, respectively. In addition, the temperature of the human intestinal tract ranges from 36° C. to 40° C. depending on the individual's metabolic state. In the illustrative example five plant-derived myrosinase orthologues with minimal glycosylation sites and the absence of the co-factor-binding sites using the BLAST search and the Enzyme Function Initiative-Enzyme Similarity Tool (EFI-EST), are compared to the well-characterized myrosinases from Brevicoryne brassicae (BMY1) and Arabidopsis thaliana (TGG1) (FIG. 2a and FIG. 7).
Gene cloning, protein expression and purification. Myrosinase genes are optimized for E. coli expression and cloned into the pET28b expression vector. The plasmids are transformed into E. coli BL21 (DE3) cultured in lysogeny broth (LB) (BD, Le Pont de Claix, France) at 37° C., 225 rpm to OD600 0.6 followed by 0.5 mM isopropyl β-D-1-thiogalactopyranoside (IPTG) induction at 16° C., 180 rpm for 16 hours. Cells are harvested, resuspended in lysis buffer (50 mM Tris-Cl, 300 mM NaCl, 10% glycerol, 1 mM dithiothreitol [DTT], pH 8.0) and lysed using Emulsiflex C-3 (Avestin). Expressed myrosinases are purified by IMAC Ni-NTA purification followed by Hi-Load Superdex 200 size exclusion column chromatography (GE, Uppsala, Sweden). The purified protein is concentrated and stored at −80° C. Pilot scale protein purification and enzymatic assay is conducted.
Myrosinase screening assay. The enzymatic reaction is measured for the release of glucose resulting from sinigrin hydrolysis. The reaction is conducted in sodium phosphate-buffered solution supplied in the Amplex® Red Glucose/Glucose Oxidase Assay Kit (Thermo Fisher Scientific, Geel, Belgium). The reaction buffer is prepared at different pH values (6.0, 6.5, 7.4 and 8.0) and at different reaction temperatures (34° C., 37° C., and 40° C.). The reaction is prepared using 0.1 μM purified myrosinase added to 1× Amplex® Red Glucose Assay reaction mixture and was kick-started with the corresponding concentration of sinigrin. The reaction can be measured at 560 nm absorbance and fluorescence (λex=540 nm, λem=590 nm) using a Synergy H1 Multi-Mode microtiter plate reader (BioTek®, Winooski, USA). The reaction initial velocity (VO) is determined and fitted into a Michaelis-Menten curve. Vmax and KM are determined by fitting into the Michaelis-Menten equation (Eq. 1) using GraphPad Prism Software. ^v=Vmax*[Sinigrin]/(KM+[Sinigrin]) (Eq.1)
Table S1|Myrosinase activity assay screening under various pH and temperature conditions (n=3 independent experiments, each measurement performed in triplicates; mean[…].).

As to “Arabidopsis thaliana myrosinase TGG1 (Arabidopsis thaliana)”, the Km (commonly the concentration of substrate that gives half-maximal velocity) reads like this: (other: pH 6.0, 37° C., pH 6.0, 37.0 °C) 361 ± 11 µM; (other: pH 6.5, 37° C., pH 6.5, 37.0 °C) 198 ± 20 µM; (other: pH 7.4, 34° C., pH 7.4, 34.0 °C) 78 ± 8 µM; (other: pH 7.4, 37° C., pH 7.4, 37.0 °C) 71 ± 3 µM; (other: pH 7.4, 40° C., pH 7.4, 40.0 °C) 88 ± 9 µM; (other: pH 8.0, 37° C., pH 8.0, 37.0 °C) 137 ± 69 µM.
